Measurements as given in article doi:10.1101/2021.05.09.442808 (bioRxiv, 2021).

Biological target: SARS-CoV-2 S 2P prefusion-stabilized ectodomain trimer (SARS-CoV-2 (Wuhan-Hu-1), stabilised)
Test: SPR

B1: S2P6 Fab fragment (Fab, V domains shown)
VH: EVQLVQSGAEVKKPGASVKVSCKASGYTFTSQYMHWVRQAPGQGLEWIGIINPSGVHTSYAQKFQGRVTLTRDTSTSTLYMELSSLRSEDTAVYYCARGSPKGAFDYWGQGTLVTVSS
VL: not shown
Kd: 7 nM
